According to the RNAGym collection of RNA variant scans (doi:10.1093/nar/gkz1192):

B1: CPEB3 Ribozyme (parent)
chain: UAACAGGGGGCCACAGCAGAAGCGUUCACGUCGCAGCCCCUGUCAGAUUCUGGUGAAUCUGCGAAUUCUGCUGUAUAUCUC

Variants of: B1
Assay: self-cleavage, relative activity (ratio to wild type); higher = more cleavage; in vitro, sequencing
Method in brief: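 After error-prone PCR and barcoding, CPEB3 ribozyme mutant libraries were transcribed with T7 RNA polymerase at 37°C for 5 hours, then given 15 min with DNase I before an EDTA stop, and they cleaved during both steps. Reverse transcription with template switching preceded Illumina sequencing. Relative activity divides a variant's cleaved/total read fraction by the unmutated ribozyme's. At least 5 reads were required per variant, and three batches were averaged.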
UAACAGGGGGCCACAGCAGAAACGUUCACGUCGCAGCCCCUGUCAGAUUCUGGUGAAUCUGCGAGUUCUGCUGUAUAUCUC showed a self-cleavage of 0.23. Work on UAACAGGGGGCCACAGCAGAAACGUUCACGUCGCAGCCCCUGUCAGAUUCUGGUGAAUCUGCGAUUUCUGCUGUAUAUCUC yielded a self-cleavage of 0.08. Work on UAACAGGGGGCCACAGCAGAAACGUUCACGUCGCAGCUCCUGUCAGAUUCUGGUGAAUCUGCGAAUUCUGCUGUAUAUCUC yielded a self-cleavage of 0.17. For UAACAGGGGGCCACAGCAGAAACGUUCACGUCGCAGCCCCUGUCAGAGUCUGGUGAAUCUGCGAAUUCUGCUGUAUAUCUC, the self-cleavage was 0.32. Work on UAACAGGGGGCCACAGCAGAAACGUUCACGUCGCAGCCCCUGUCAGAAUCUGGUGAAUCUGCGAAUUCUGCUGUAUAUCUC yielded a self-cleavage of 0.07. For UAACAGGGGGCCACAGCAGAAACGUUCACGUCGCAGCCCCUGUCAGACUCUGGUGAAUCUGCGAAUUCUGCUGUAUAUCUC, the self-cleavage was 0.19. UAACAGGGGGCCACAGCAGAACCGUUCACGUCGCAGCCCCUUUCAGAUUCUGGUGAAUCUGCGAAUUCUGCUGUAUAUCUC showed a self-cleavage of 0.11. Variant UAACAGGGGGCCACAGCAGAAACGUUCACGUCGCAGCCCCUGUCAGAUUCUGGUGGAUCUGCGAAUUCUGCUGUAUAUCUC has a self-cleavage of 0.17. For UAACAGGGGGCCACAGCAGAAACGUUCACGUCGCAGCCCCUGUCAGAUUCUUGUGAAUCUGCGAAUUCUGCUGUAUAUCUC, the self-cleavage was 0.38. For UAACAGGGGGCCACAGCAGAACCGUUCACGUCGCAGCCCCUGUCAGAUUCUGGUGAAUCUGCGAAUUCUGCUGUAUAUCUC, the self-cleavage was 0.26. With UAACAGGGGGCCACAGCAGAAACGUACACGUCGCAGCCCCUGUCAGAUUCUGGUGAAUCUGCGAAUUCUGCUGUAUAUCUC the self-cleavage was 0.38. In the case of UAACAGGGGGCCACAGCAGAAACGUCCACGUCGCAGCCCCUGUCAGAUUCUGGUGAAUCUGCGAAUUCUGCUGUAUAUCUC, the self-cleavage is reported as 0.19. For UAACAGGGGGCCACAGCAGAAACGUUCACGACGCAGCCCCUGUCAGAUUCUGGUGAAUCUGCGAAUUCUGCUGUAUAUCUC, the self-cleavage was 0.34. Work on UAACAGGGGGCCACAGCAGAACCGUUCACGUCGCGGCCCCUGUCAGAUUCUGGUGAAUCUGCGAAUUCUGCUGUAUAUCUC yielded a self-cleavage of 0.32. UAACAGGGGGCCACAGCAGAACCGUUCACGUCGCUGCCCCUGUCAGAUUCUGGUGAAUCUGCGAAUUCUGCUGUAUAUCUC showed a self-cleavage of 0.12. Variant UAACAGGGGGCCACAGCAGAAACGUUCACGUCGCAGCCCCUGUCAGAUUCUGGUGAAUCUGCGAAUUCUGCUGUAUAUCCC has a self-cleavage of 0.5. In the case of UAACAGGGGGCCACAGCAGAAACGUUCACGUCGCAGCCCCUGUCAGGUUCUGGUGAAUCUGCGAAUUCUGCUGUAUAUCUC, the self-cleavage is reported as 0.48. With UAACAGGGGGCCACAGCAGAAACGUUCACGUCGCAGCCCCUGUCAGAUUCUGGUGAAUCUGCGGAUUCUGCUGUAUAUCUC the self-cleavage was 0.24. For UAACAGGGGGCCACAGCAGAAACGUUCACGUCGCAGCCCCUGUCAGAUUCUGGUGAAUCUGCGUAUUCUGCUGUAUAUCUC, the self-cleavage was 0.32. Variant UAACAGGGGGCCACAGCAGAACCGUUCACGUCGCAGCCCCUGUCAGAUUCUGGUGAAUCUGCGAAUCCUGCUGUAUAUCUC has a self-cleavage of 0.11. UAACAGGGGGCCACAGCAGAACCGUUCACGUCGCAGCCCCUGUCAGAUUCUGGUGAAUCUGCGAAUACUGCUGUAUAUCUC showed a self-cleavage of 0.16. With UAACAGGGGGCCACAGCAGAAACGUUCACGUCGCAGACCCUGUCAGAUUCUGGUGAAUCUGCGAAUUCUGCUGUAUAUCUC the self-cleavage was 0.09. Variant UAACAGGGGGCCACAGCAGAAACGUUCACGUCGCAGCCCCUGUCAGAUUCCGGUGAAUCUGCGAAUUCUGCUGUAUAUCUC has a self-cleavage of 0.2. In the case of UAACAGGGGGCCACAGCAGAAACGUUCACGUCGCAGCCCCUGUCAGAUUCGGGUGAAUCUGCGAAUUCUGCUGUAUAUCUC, the self-cleavage is reported as 0.17. In the case of UAACAGGGGGCCACAGCAGAAACGUUCACGUCGCAGCCCCUGUCAGAUUCUGGUGAAUCUGCAAAUUCUGCUGUAUAUCUC, the self-cleavage is reported as 0.27. Variant UAACAGGGGGCCACAGCAGAAACGUUCACGUCGCAGCCCCUGUCAGAUUCUGGUGAAUCAGCGAAUUCUGCUGUAUAUCUC has a self-cleavage of 0.08. Variant UAACAGGGGGCCACAGCAGAAACGUUCACGUCGCAGCCCCUGUCAGAUUCUGGUGAAUCCGCGAAUUCUGCUGUAUAUCUC has a self-cleavage of 0.28. For UAACAGGGGGCCACAGCAGAAACGUUCACGUCGCAGCCCCUGUCAGAUUCUGGUGAAUCUGCGAAUUCUGCUGUAUUUCUC, the self-cleavage was 0.1. With UAACAGGGGGCCACAGCAGAACCGUUCACGUCGCAGCCCCUGUCAGAUUCUGGUGAAUCUGCGAAUUCCGCUGUAUAUCUC the self-cleavage was 0.15. In the case of UAACAGGGGGCCACAGCAGAAACGUUCACGUCGCAGCCCCUGUCAGAUUCUGGUGAAUCUGCGAAUUCUGCUGUACAUCUC, the self-cleavage is reported as 0.25. For UAACAGGGGGCCACAGCAGAAACGUUCACGUCGCAGCCCCUGUCAGAUCCUGGUGAAUCUGCGAAUUCUGCUGUAUAUCUC, the self-cleavage was 0.11. For UAACAGGGGGCCACAGCAGAACCGUUCACGUCGCAGCCCCUGUCAGAUUCUGGUGAGUCUGCGAAUUCUGCUGUAUAUCUC, the self-cleavage was 0.32. UAACAGGGGGCCACAGCAGAAACGUUCACGUCGCAGCCCCUGUCAGAUUCUGGUGAAUCUGCGAAUUCUGCUGUUUAUCUC gave a self-cleavage of 0.37. In the case of UAACAGGGGGCCACAGCAGAAACGUUCACGUCGCAGCCCCUGUCAGAUUCUGGUGAAUCUGCGAAUUCUGCCGUAUAUCUC, the self-cleavage is reported as 0.23. In the case of UAACAGGGGGCCACAGCAGAAACGUUCACGUCGCAGCCCCAGUCAGAUUCUGGUGAAUCUGCGAAUUCUGCUGUAUAUCUC, the self-cleavage is reported as 0.19. With UAACAGGGGGCCACAGCAGAAACGUUCACGUCGCAGCCCCCGUCAGAUUCUGGUGAAUCUGCGAAUUCUGCUGUAUAUCUC the self-cleavage was 0.37. In the case of UAACAGGGGGCCACAGCAGAAACGUUCACGUCGCAGCCCCUGUCAGAUUCUGGUGAGUCUGCGAAUUCUGCUGUAUAUCUC, the self-cleavage is reported as 0.35. Variant UAACAGGGGGCCACAGCAGAACCGUUCACGUCGCAGCCCCUGUCAGAUUCUGGUUAAUCUGCGAAUUCUGCUGUAUAUCUC has a self-cleavage of 0.22. With UAACAGGGGGCCACAGCAGAAACGAUCACGUCGCAGCCCCUGUCAGAUUCUGGUGAAUCUGCGAAUUCUGCUGUAUAUCUC the self-cleavage was 0.18. UAACAGGGGGCCACAGCAGAACCGUUCACGUCGCAGCCCCUGUCAGAUUCUGGUGAAUCUGCGAGUUCUGCUGUAUAUCUC showed a self-cleavage of 0.32. UAACAGGGGGCCACAGCAGAACCGUUCACGUCGCAGCCCCUGUCAGAUUCUGGUGAAUCUGCGAAUUCUGCUGUGUAUCUC showed a self-cleavage of 0.13. In the case of UAACAGGGGGCCACAGCAGAACCGUUCACGUCGCAGCCCCUGUCAGAUUCUGGUGAAUCUGCGAAUUCUGCUGUUUAUCUC, the self-cleavage is reported as 0.24. UAACAGGGGGCCACAGCAGAAACGUUCACGUCGCAGCCCCUGUCUGAUUCUGGUGAAUCUGCGAAUUCUGCUGUAUAUCUC gave a self-cleavage of 0.11. In the case of UAACAGGGGGCCACAGCAGAACCGUUCACGUCGCAGCCCCUGUCAGAUUCUGGUGAAUCUGCGUAUUCUGCUGUAUAUCUC, the self-cleavage is reported as 0.16. Work on UAACAGGGGGCCACAGCAGAACCGUUCACGUCGCAGCCCCUGUCAGAUUCUGGUGAAUCUGCGGAUUCUGCUGUAUAUCUC yielded a self-cleavage of 0.24. Variant UAACAGGGGGCCACAGCAGAACCGUUCACGUCGCAGCCCCUGUCAGAUUCUGGUGAAUCUGUGAAUUCUGCUGUAUAUCUC has a self-cleavage of 0.16. Variant UAACAGGGGGCCACAGCAGAAACGUUCACGUCGCAGCCCCUGUCAGAUUCUGGUGAAUCUGCGAAUUGUGCUGUAUAUCUC has a self-cleavage of 0.11. UAACAGGGGGCCACAGCAGAAACGUUCACGUCGCAGCCCCUGUCAGAUUCUGGUGAACCUGCGAAUUCUGCUGUAUAUCUC showed a self-cleavage of 0.27. Work on UAACAGGGGGCCACAGCAGAAACGUUCACGUCGCAGCCCCUGGCAGAUUCUGGUGAAUCUGCGAAUUCUGCUGUAUAUCUC yielded a self-cleavage of 0.09. With UAACAGGGGGCCACAGCAGAAACGUUCACGUCGCAGCCCCUGACAGAUUCUGGUGAAUCUGCGAAUUCUGCUGUAUAUCUC the self-cleavage was 0.38. With UAACAGGGGGCCACAGCAGAACCGUUCACGUCGCAGGCCCUGUCAGAUUCUGGUGAAUCUGCGAAUUCUGCUGUAUAUCUC the self-cleavage was 0.09. In the case of UAACAGGGGGCCACAGCAGAACCGCUCACGUCGCAGCCCCUGUCAGAUUCUGGUGAAUCUGCGAAUUCUGCUGUAUAUCUC, the self-cleavage is reported as 0.45. Work on UAACAGGGGGCCACAGCAGAACCGUUCACGUCGCAGCCCCUGUCAGAUUCUGGUGUAUCUGCGAAUUCUGCUGUAUAUCUC yielded a self-cleavage of 0.14. UAACAGGGGGCCACAGCAGAACCGUUCACGUCGCAGCCCCUGUCAGAUUCUGGUGGAUCUGCGAAUUCUGCUGUAUAUCUC gave a self-cleavage of 0.21. For UAACAGGGGGCCACAGCAGAAACGUUCACGUCGCAGCCCCUGUCAGAUUCUGGUGAAUCUGCGAAUUCAGCUGUAUAUCUC, the self-cleavage was 0.24. Work on UAACAGGGGGCCACAGCAGAAACGUUCACGUCGCAGCCCCUGUCAGAUUCUGGUGAAUCUGCGAAUUCGGCUGUAUAUCUC yielded a self-cleavage of 0.06. In the case of UAACAGGGGGCCACAGCAGAACCGUUCACGUCGCAGCCCCCGUCAGAUUCUGGUGAAUCUGCGAAUUCUGCUGUAUAUCUC, the self-cleavage is reported as 0.1. Variant UAACAGGGGGCCACAGCAGAACCGUUCACGUCGCAGCCCCAGUCAGAUUCUGGUGAAUCUGCGAAUUCUGCUGUAUAUCUC has a self-cleavage of 0.29. UAACAGGGGGCCACAGCAGAACCGUUCACGUCGCAGCCCCUGUCAGAUUCUGCUGAAUCUGCGAAUUCUGCUGUAUAUCUC showed a self-cleavage of 0.07. In the case of UAACAGGGGGCCACAGCAGAACCGUUCAUGUCGCAGCCCCUGUCAGAUUCUGGUGAAUCUGCGAAUUCUGCUGUAUAUCUC, the self-cleavage is reported as 0.1. With UAACAGGGGGCCACAGCAGAAACGUUCACGUCGCAGCCCCUGUCAGAUUCUGGUGAAUCUGCGAAUACUGCUGUAUAUCUC the self-cleavage was 0.32. Work on UAACAGGGGGCCACAGCAGAAACGUUCACGUCGCAGCCCCUGUCAGAUUCUGGUGAAUCUGCGAAUCCUGCUGUAUAUCUC yielded a self-cleavage of 0.09. For UAACAGGGGGCCACAGCAGAAACGUUCACGUCGCAGCCCCUGUCAGAUUCUGGUGAAUCUGCGAAUUCUGCUGCAUAUCUC, the self-cleavage was 0.5. Work on UAACAGGGGGCCACAGCAGAACCGUUCACGUCGCAGCCCCUGUCAGAUUCUCGUGAAUCUGCGAAUUCUGCUGUAUAUCUC yielded a self-cleavage of 0.2. With UAACAGGGGGCCACAGCAGAAACGUUCACGUCGCAGCCCCUGUCAGAUUCUGGCGAAUCUGCGAAUUCUGCUGUAUAUCUC the self-cleavage was 0.2. Work on UAACAGGGGGCCACAGCAGAACCGUUCACGACGCAGCCCCUGUCAGAUUCUGGUGAAUCUGCGAAUUCUGCUGUAUAUCUC yielded a self-cleavage of 0.12. Work on UAACAGGGGGCCACAGCAGAAACGUUCACGUCGCAGCCCCUGUCAGAUUCUGAUGAAUCUGCGAAUUCUGCUGUAUAUCUC yielded a self-cleavage of 0.6. Variant UAACAGGGGGCCACAGCAGAAACGUUCACGUCGCAGCCCCUGUCAGAUUCUGGUGAAUCUGCGAAUUCUGCUGUAUACCUC has a self-cleavage of 0.19.
